# Reference: the DeepSol protein solubility set
# Assay: soluble on expression in E. coli; label from the status in PepcDB or PDB records
row,Sequence,soluble on expression in E. coli
1,MAHHHHHHMSKDGNCGGCSAPWGKMPQSPMTPLSDARDSPTAPLCSHSAFSKVNKESSEEESFVVGKYQTSMCPICLESFTHENPAVVVGCGHSFHLQCVEDWRQRSPICPVCMIVLRGDGLPMHTGRQSQRPSEVSPSQRKGRATTSTMTSASSGTTFMVTAGGVHGRVLDTKPPSVVNASAGVEGSGSVVDVGNVSFLSRVRRCMKFCCTCEDDL,not soluble
2,MAHHHHHHMGTLEAQTQGPGSMSMAQQFIDIGANLTDDNYFGNYHGKHYHEEDIDVVLQRAERNGLSHIIITSGCLNDFKKAIEIINKYQNLTNIKLVTTIGVHPTRTNELKQEGYLDELLLLCEKNIDKVVAIGEIGLDYERLQFSDKETQLSGYRTLSILHQKYPYLPFFFHCRKSWSDLCQLNKELGYNGCKGVVHCFDGTEEEMNQILNEGWDIGVTGNSLQSIELLNVMKQIPIERLHIETDCPYCGIKKTSAGFKYLKEKDFGVKVEKYQRNKYVQRRNEPSNIIDIAIIMSSIKHISLFEFVNKVYSNSMNMYFPTMN,soluble
3,MGSLNGGSPEGVESQDGVDHFRAMIVEFMASKKMQLEFPPSLNSHDRLRVHQIAEEHGLRHDSSGEGKRRFITVSKRAGSHHHHHH,soluble
4,MGSDKIHHHHHHMSTFHPHPPTQNRLLAALPPIELDDLAPHLELVHLLPGDVLCKAGKQLSYAYFPTSSVISIHCLLENGTLSELTSVGREGMLGVSLFMGGEDTQSSATVQSAGYGYRLNAAFLLQEFNEGGMLQRLLLRYSHALVTEAAQNVICSRYHTAQQRLCRWLMSTWDRLGSQELVLTQESIASILGIRRESVTAIARRLQEAGTICYRRGRIMVNDQAALQRESCECYDIIKKEFDGVFDDVRVCEKARQNSINAANAL,not soluble
5,MYSANPTLGYYVPPLDVNNLTDQQTAISIEHLSLYYQQSRALSDISMRIPKGQVTAFIGPSGCGKSTLLRCINRMNDLVEGTRVEGEVKLHGKNIYHPDVDVPTLRRRVGMVFQRPNPFPKSIYENVVYGLRLQGIKNSRALDDAAEQSLRAAALWDEVKHRLHENAFGLSGGQQQRLVIARAIAIEPEVLLLDEPTSALDPISTLTIEELIHDLKTKYTVVIVTHNMQQAARVSDHTAFIHMGKLIEYADTDSIFTSPLKKQTEDYITGRYG,not soluble
6,MAQPSTTYKFELNLTDLDRNVYESVKQTIARHPSETEERMAVRLLAYALWYNENLSFGRGLSDVDEPALWEKSLDDRVLHWIEVGQPDADRLTWCSRRTERTSLLAYGSLRVWEGKVVSAVKNLKNLSIAAVPQEVLETLATDMPRSIKWDVMISEGTVFVTDDRGQHEVQLQWLLGERG,not soluble
7,MSFQLDQSTSVIKTAPPGRLEFKNEPIDIASSNIQDLAKMQTLDGYYQQTSLQLPQSQQYHRMYENVYNNQQILYAQTQNFQYPSTLLTNGSLAQTEWRGQQMDTSAYSNTGYSRSSTSQQPQYTQQVTENERIVYKPVDMPSPVDSGIGGDISILNPKEEFFTSADGGSMLERSSERTLSHRDSPLVIPKLYNNLGFQYVLEAPISTSVRRDDDRMTYVNKGQFYTVSLEYTPDLNKCLKSQTVKSQLMVVFREDKTYEEEIKTWQSWHARQHVSKQRILEIDSKNSSGMIGQIEEIGNNAVQFYWNPSDPSGVRISIAVQCLSTDFSTQKGVKGLPLHVQIDTYDGENDKVPFHRGYCQIKVFCDKGAERKLRDEDKRAQKRKVQEYTAGALPGGRKKSDGEYHDQCERSEFYHMRELDKPAALFIAPEEFEPRYVDSTSLSFDMSEIEPIPTKRPRTSERIMLYVRKRDEQIYQPLHVVPASLSGLALAIANKFGADPDKMSGVYKRCAKGITVKVDDEMLRLYCNEDTFIIDVEHATDGSTAATLIEVAPTNPNSYSNS,not soluble
8,KPGKQIPTLEDAKKELKIPDQDKEQNGNIARQRHVVNAYAVGRIADEEGLFRFQLDDKGKWGNPQLLVKKVRHMKVRYIYVSGCPEDDDAGKEETFKYTDKFDSAQNAVTPAGVEVLLSSGTDTKIAASSDNHIYAYRIDATIRGGNVCANRTL,not soluble
9,MGSDKIHHHHHHMPITQTTSAKKSKPIILMTMGQQDRNQHPYQVMTHKYMQPIVEIAGAIPLLMPTCFGIEDVDRYLDMVDGVYLSGAGSNIDPSLYGQENLTPEKSQDVNRDTVDLAIIAGALKRKLPILGICRGMQELNIALGGTLYQKVYSEPGFDDHREDPQTPNHVQYGPRHPIKTVPGSWLAKLIGDKTMVNSLHGQGICTLGKGLEALAYGEDGLIEAIHGPDYGQFILGVQWHPEWQANDNPDSIKLFQAFGSACRGEVSWQSANDAKLTA,not soluble
10,MLCASAEVEVFYDTDNNRKSDPAVFWQNPLNRSKFPLLSQIANRYLTTPASSAESERVFSGAGRVSTKLRRKMSTKSLSKSVFLQQNQKVLGFKIGLD,not soluble
11,MAHHHHHHMKPEGAKGAVVSDDVGGDSANLAYCSDRITLLSRADIEAFTCCSNGAGGGGASNSENHNGGCGGLASEAQSVDPCSTLDTCIAALPMFLQSEALVLRRHEQQFRHHMKELVELTECITLLCDGSLRQHAAAVAGQPAEQSADAQRAESAALHRMLHRAEELERYVRAAAVERLRSAQRMVLAASTTKRREKVGRKSAVRPPKATK,not soluble
12,MNLRPVIVGGGSAGMAAAIELARRGVPCVLFDEASRPGGVVYRGPLRAGVDPAYLGARYTRMLEKLRRDFSACAGHIDLRLNSRVVGGDGQRLMVLDEAERLHEVEYSHLLLATGCHERSVPFPGWTLPGVMLLGGLQLQIKSGVVKPLGDTLIAGSGPLLPLVACQLHAAGVRVAGVYEACAFGRMARESLALLNKPQLFLDGLSMLGYLKLNGIPLHYGWGVVEASGDGELTEVTVAPYDEEWRPDLENARPVKASTLAVGYGFIPRTQLSQQLGLEHGFSDDGYLRAECNVWQQSSQPHIHLAGDMAGIRGGEAAMIGGRIAALSILLQREAIAPAEAIERRESHLARLEAIKRFRAGVERYTQRGARQVELARADTVICRCEQVTRGDIERALEQGVQDIAGLKMRTRAGMGDCQGRMCIGYCSDRLRRATGRHDVGWLRPRFPIDPIPFSAFQNLGTEALEHHHHHH,not soluble
13,MGSDKIHHHHHHVPEQHICTYEYRLANPNPRPIVGRFQLNFTLDVNGCESGTPVLYLEHVQVHATVRYLKRGDLKLTLFSPSGTRSVLLPPRPQDFNANGFHKWPFLSVQQWGEDPRGTWLLMVESVTTNPAATGTFHDWTLLLYGTADPAQSGDPVYSATPATSQGVLSRVHQLTSQILITIAIHLVVNA,not soluble
14,MGSDKIHHHHHHMNTPREVTLHFLRTAGHPLTRWALQRQPPSPKQLEEEFLKIPSNFVSPEDLDIPGHASKDRYKTILPNPQSRVCLGRAQSQEDGDYINANYIRGYDGKEKVYIATQGPMPNTVSDFWEMVWQEEVSLIVMLTQLREGKEKCVHYWPTEEETYGPFQIRIQDMKECPEYTVRQLTIQYQEERRSVKHILFSAWPDHQTPESAGPLLRLVAEVEESPETAAHPGPIVVHCSAGIGRTGCFIATRIGCQQLKARGEVDILGIVCQLRLDRGGMIQTAEQYQFLHHTLALYAGQLPEEPSP,soluble
15,MGSSHHHHHHSSGLVPRGSHMSLKHFLNTQDWSRAELDALLTQAALFKRNKLGSELKGKSIALVFFNPSMRTRTSFELGAFQLGGHAVVLQPGKDAWPIEFNLGTVMDGDTVEHIAEVARVLGRYVDLIGVRAFPKFVDWSKDREDQVLKSFAKYSPVPVINMETITHPCQELAHALALQEHFGTPDLRGKKYVLTWTYHPKPLNTAVANSALTIATRMGMDVTLLCPTPDYILDERYMDWAAQNVAESGGSLQVSHDIDSAYAGADVVYAKSWGALPFFGNWEPEKPIRDQYQHFIVDERKMALTNNGVFSHCLPLRRNVKATDAVMDSPNCIAIDEAENRLHVQKAIMAALVGQSRP,soluble
16,MVKHIWDSERAAQLPKGVEELVYRSNLIGSDRTVCNWGGGNTSMKTTEKDFRGREIEVMWVKGSGSDLATMKAHNFSGLKLDDIRPLIKRDQMPDEEMVDYLSHCMIDSKHPRPSIETLLHAFLPYKHVDHTHPDAIISICCADNGKQIAEDIYGNRFVWVPYVRPGFTLSKMIAEGVANNPHAELVLMEKHGLVTWGETSETCYQKTISIIQEAEQYINDRINQHEVFGGKRYQPLPEDKRKQILAGIMPVIRGAVSEEKKMILSYDDHDDVLEFVNSVQAPALSQIGAACPDHLVHTKRVPLYIDWNPETQDVHKLADLIKSGVETFTSEYQAYFTRNQQDGDQIFESAPRVILIPGIGMVNTGKSYAMSKVSGALYRRAIAVMKGATALGQFVSLHENESYHVEYWPLELYKLTLAPPEAEFSRKVALITGGAGGIGSAACRRFAAEGGHVIVADLNIEGAQKIAGEINDAYGKGRAMAVKMDVTKEEDVQSAFERAALAYGGIDIVVNNAGLATSSPFDETSLKEWNLNMNVLGTGYFLVAREAFKQMKHQNRGGSMVFVGSKNSVYAGKNASAYSSVKALETHLARCIAAEGGEFGIRVNSVLPDAVLQGSAIWGSSWREERAAAYGIEPDQLEEHYRKRTALLVNIYPEDIAEAIAFFASSKAEKTTGCMITVDGGVPAAFTR,not soluble
17,MKNKTKNATLKSIIDVILYENPSTQDEIAERLGITRRYVTKLLQPLIREGVVRRAYIVDIKKFDEFPELFGEEVTSREYAGSFFIKEILRDMAQHVCKQLNKSFRSLEEYDEDLANEALKMDYITNTMHEKVRSSVDTAIAMNPYSEFSKTMAFTEIAYDLERIGDHSAIIANFAIKESYEVDPAMMEYLRDMFSIAVEMVKTAMDAFLNEKLELKATLMSLEDDIHRIQKNALNCVATQMAETPFEDKERSTYYISLSRVVKTLERIADISIEIFDTAGEYYRNIPRTTTPERFRRREREES,soluble
18,QSNAIWGLDRIDQRNLPLDRNYNANFDGFGVTAYVIDTGVNNNHEEFGGRSVSGYDFVDNDADSSDCNGHGTHVAGTIGGSQYGVAKNVNIVGVRVLSCSGSGTTSGVISGVDWVAQNASGPSVANMSLGGGQSTALDSAVQGAIQSGVSFMLAAGNSNADACNTSPARVPSGVTVGSTTSSDSRSSFSNWGSCVDLFAPGSQIKSAWYDGGYKTISGTSMATPHVAGVAALYLQENNGLTPLQLTGLLNSRASENKVSDTRGTTNKLLYSLADSGCEPDCGGP,soluble
19,MGSDKIHHHHHHMLLTLSICNFRSFGTEATLDLQRRGFRTQHPRKDETWQENTWRRAAIFGANAAGKSNVLRALGQLKLAITHSLTNEHWVRELRDPHSLCTDEPTSFEVEYVFDDVRYRWGLTLNHSGVVEEFLEANLSSRWRRIFERTGNSLIFGSNTGISHAAKENIEQFMRPWALVFSAWNTVKTPGPFAGALQWWQTLLPVIMSNEADQHNRHQWLVQLAQKDPTWLSVLQNVVAVADVGINKIGIEEQAPDLVKKIELTIQPDGQAEITDQFDSDEITEYLRYLMFEHSDGIHTFSLPETQESQGTKAWMDLAIPALFALSVGGVLSIDEIDGSLHPLLVRELVSYFDNSELNPLGAQLLFSTHDLTLLGKYPAESLHRGEVWLVEKERSYSELIALDEFPIRDAHNIEKRYLQGTYGAVPISNTTELLHTLEVLREKYTKMKQQ,not soluble
20,MGSDKIHHHHHHMSNNSKISWTTTTWNVTAGCDPISDGCKNCYARMMAERLKAMGQAKYQNGFIPTIHSECLNEPFGWKGNKLVFVVSMGDLFHKDIPFDFIDKVIEVITKCPQHTFQILTKRAERMYEYFSTHAIPENVWLGVTVENQKVKGRIDYLKKLDAPVRFLSCEPLLEDLGTLDLSDIDWVIVGGESGNRARKVEKDWILNIKSQCDASTSTAFFFKQWGTWGADGVKRSAKENGCLLDGKEYHAYPTPRKIKP,not soluble
